From patent US20240287172A1 (SCIRHOM, published 2024)
Changes are numbered by the printed parent chain.

B1: antibody 48 (antibody, V domains shown)
VH: QVQLQQSGTELVRPGTSVKVSCKASGYAFTNYLIEWVKQRPGQGLEWIGVINPGSGFTKYNEKFKGKATLTADKSSSTVYMHLSSLTSEDSAVYFCARGLYRAMDYWGQGTSVTVSS
VL: DIQMTQSPASQSASLGESVTITCLASQTIATWLAWYQQKPGKSPQLLIYGATTLADGVPSRFSGGGSGTKFSFKISSLQAEDFVSYYCQQLYSTPYTFGGGTKLEIK
notes: mouse IgG, kappa light chain; also called clone #48; purified antibody 48
B2: antibody 50 (antibody, V domains shown)
VH: B1 VH with T9A, T16A, T30S, V79A, H82Q
VL: B1 VL with A30G, G50A, T52A, T53S, S85N, L91I
notes: mouse IgG, kappa light chain; also called clone #50; purified antibody 50

Target: T1, hiR2-FL-E617D-T7 (human, UniProt Q6PJF5 1-856)
T1 sequence: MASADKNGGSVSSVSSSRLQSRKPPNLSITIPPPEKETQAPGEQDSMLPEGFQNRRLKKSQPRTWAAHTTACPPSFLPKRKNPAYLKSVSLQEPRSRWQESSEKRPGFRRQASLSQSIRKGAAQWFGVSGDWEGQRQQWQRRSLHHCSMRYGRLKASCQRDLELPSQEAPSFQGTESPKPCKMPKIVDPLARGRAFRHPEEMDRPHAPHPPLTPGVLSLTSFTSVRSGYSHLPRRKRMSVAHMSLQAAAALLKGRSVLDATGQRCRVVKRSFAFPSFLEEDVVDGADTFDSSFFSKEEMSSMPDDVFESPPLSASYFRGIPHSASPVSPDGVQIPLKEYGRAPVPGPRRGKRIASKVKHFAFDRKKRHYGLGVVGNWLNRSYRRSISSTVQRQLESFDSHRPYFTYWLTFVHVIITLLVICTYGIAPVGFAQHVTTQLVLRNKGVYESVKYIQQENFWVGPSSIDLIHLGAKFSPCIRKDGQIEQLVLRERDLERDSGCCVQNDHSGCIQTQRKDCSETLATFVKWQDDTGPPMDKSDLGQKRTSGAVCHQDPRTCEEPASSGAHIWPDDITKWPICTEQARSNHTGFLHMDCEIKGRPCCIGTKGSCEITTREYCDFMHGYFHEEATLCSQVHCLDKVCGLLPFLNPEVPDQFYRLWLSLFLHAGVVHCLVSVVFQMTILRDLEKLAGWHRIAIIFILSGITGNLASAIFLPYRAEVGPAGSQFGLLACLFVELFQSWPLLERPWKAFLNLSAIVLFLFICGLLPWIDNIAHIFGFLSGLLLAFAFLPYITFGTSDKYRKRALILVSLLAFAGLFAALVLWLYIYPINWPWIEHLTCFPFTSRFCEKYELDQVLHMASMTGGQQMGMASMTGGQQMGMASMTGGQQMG
Assay: FACS, MEF-DKO cells, 3 µg/ml
Method in brief: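 Binding read by flow cytometry after a PE goat anti-mouse IgG F(ab′)2 secondary (1:100, on ice, 1 h, dark). Before that, immortalized MEF-DKO lines carrying single-mutant hiR2-FL-T7 constructs were incubated 1 h on ice with 3 μg/ml antibody or FACS buffer alone.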

| Binder | loss of binding vs wild type [%] |
| --- | --- |
| B1 | ≥ 30 |
| B2 | ≥ 30 |
